Tests used:
[1] = biological target: T1, peptide substrate EFDLELIEED (SEQ ID NO: 31)
T1 chain: EFDLELIEED

[2] = biological target: peptide substrates with amino acid substitutions (among SEQ ID NO: 32, 33, 34, 35)
[3] = biological target: T2, RP1 retropepsin inhibitor Ac-Leu-Val-Phe-aldehyde (Bachem N 1395.0005)
T2 chain: LVF

[4] = biological target: T3, RP2 retropepsin inhibitor Ac-Leu-Leu-Met-aldehyde (Bachem N 1315.0005)
T3 chain: LLM

[5] = biological target: T4, RP3 retropepsin inhibitor Ac-Leu-Leu-Nle-aldehyde (Bachem N 1320.0005)
T4 chain: LLX

[6] = biological target: T5, corneodesmosin extracted from human stratum corneum, Q15517
T5 chain: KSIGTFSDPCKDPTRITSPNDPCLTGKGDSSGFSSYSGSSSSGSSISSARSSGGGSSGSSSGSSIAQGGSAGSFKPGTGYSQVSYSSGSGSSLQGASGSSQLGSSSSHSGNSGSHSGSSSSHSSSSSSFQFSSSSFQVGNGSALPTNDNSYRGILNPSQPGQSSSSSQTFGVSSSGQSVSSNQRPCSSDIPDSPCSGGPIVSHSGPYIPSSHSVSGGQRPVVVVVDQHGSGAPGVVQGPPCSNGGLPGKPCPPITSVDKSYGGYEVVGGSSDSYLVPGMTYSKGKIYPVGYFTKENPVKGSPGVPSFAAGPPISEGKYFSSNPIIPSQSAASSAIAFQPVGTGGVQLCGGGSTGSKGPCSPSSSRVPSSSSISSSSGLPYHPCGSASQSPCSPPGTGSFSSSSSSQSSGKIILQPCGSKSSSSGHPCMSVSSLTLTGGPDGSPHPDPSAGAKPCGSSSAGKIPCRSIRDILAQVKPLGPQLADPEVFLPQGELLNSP

[7] = biological target: oxidized beta-chain of insulin (Sigma)
Sequence of oxidized beta-chain of insulin (Sigma) (chain, as listed by the source): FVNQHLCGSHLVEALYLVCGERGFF

[8] = biological target: casein substrate sold under the name Enzchek (Molecular Probes)

B1: recombinant fusion protein GST-SASPase delta1-84 (SEQ ID NO: 4) (protein)
chain: MAGSGARSEEGRRQHAFVPEPFDGANVVPNLWLHSFEVINDLNHWDHITKLRFLKESLRGEALGVYNRLSPQDQGDYGTVKEALLKAFGVPGAAPSHLPKEIVFANSMGKGYYLKGKIGKVPVRFLVDSGAQVSVVHPNLWEEVTDGDLDTLQPFENVVKVANGAEMKILGVWDTAVSLGKLKLKAQFLVANASAEEAIIGTDVLQDHNAILDFEHRTCTLKGKKFRLLPVGGSLEDEFDLELIEEDPSSEEGRQELSH
[1]
  hydrolysis of quenched peptide substrate (fluorescence 340/450 nm): the natural (wt) peptide is effectively hydrolyzed by the SASPase
[2]
  hydrolysis of quenched peptide substrate (fluorescence 340/450 nm): amino acid substitutions in the sequence of this peptide can generate substrates for which the SASPase has greater affinity
other
  autocleavage in acetate buffer pH 4.5, SDS-PAGE over time: A decrease in the whole form GST-SASPase C27 is observed over time, which demonstrates an autocleavage and, consequently, an autoactivation

B2: activated SASPase (SEQ ID NO: 6) (protein)
chain: ANSMGKGYYLKGKIGKVPVRFLVDSGAQVSVVHPNLWEEVTDGDLDTLQPFENVVKVANGAEMKILGVWDTAVSLGKLKLKAQFLVANASAEEAIIGTDVLQDHNAILDFEHRTCTLKGKKFRLLPVGGSLEDEFDLE
[3]
  kinetics for casein hydrolysis (fluorescence 485/535 nm): the kinetics for casein hydrolysis, in the presence of the RP1 and RP2 retropepsin inhibitors, are lower than the control
[4]
  kinetics for casein hydrolysis (fluorescence 485/535 nm): the kinetics for casein hydrolysis, in the presence of the RP1 and RP2 retropepsin inhibitors, are lower than the control
[5]
  kinetics for casein hydrolysis (fluorescence 485/535 nm): the kinetics for casein hydrolysis, in the presence of the RP3 retropepsin inhibitor, are significantly higher than those obtained under the control conditions
[6]
  % Residual corneodesmosin T24 h/T0*100: 75%
[7]
  hydrolysis of the substrate followed by HPLC: These results show that the activated SASPase is capable of degrading insulin
[8]
  caseinolytic activity: Its caseinolytic activity was, moreover, demonstrated (results not shown)

Reference: patent publication US20060240053
